Our source for the Ka, Kd and koff values is publication PMC9082959, “Mechanism of Assembly of the Non-Covalent Spectrin Tetramerization Domain from Intrinsically Disordered Partners” (Journal of molecular biology, 2013).

What is called Kd is the constant that tells how readily two partners part at equilibrium. Lower therefore signals a tighter complex. As usually defined, the koff is the rate constant with which the complex falls apart.

What all share (details): both partners purified
One experiment deals with T1, β16β17 D39A (human, UniProt P11277 1898-2083, D2042A).
T1 construct: erythrocyte β-spectrin, human, residues 1898-2083 (β16β17); mutant of m2; also called D2042A; source: E. coli C41(DE3), purified (Ni2+ agarose, thrombin cleavage, gel filtration)
T1 sequence (looked up): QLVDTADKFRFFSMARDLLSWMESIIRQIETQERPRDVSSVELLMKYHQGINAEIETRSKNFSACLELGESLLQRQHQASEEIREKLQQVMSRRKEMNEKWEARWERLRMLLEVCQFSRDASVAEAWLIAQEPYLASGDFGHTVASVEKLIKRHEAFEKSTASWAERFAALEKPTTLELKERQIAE
As to the kind of experiment: ITC; β16β17 at 25–50 μM in the cell titrated with 15–20 injections to 2–2.5 eq of α0α1; one-site binding model; PBS (50 mM sodium phosphate, 150 mM NaCl, pH 7.04), 25 °C; mutants only against the wild-type partner. Background: Isothermal titration calorimetry measures the heat released or taken up as one component is titrated into another.

For a further experiment, the target named is T2, β16β17 R13G (human, UniProt P11277 1898-2083, R2016G).
T2 construct: erythrocyte β-spectrin, human, residues 1898-2083 (β16β17); mutant of m2; also called R2016G; source: E. coli C41(DE3), purified (Ni2+ agarose, thrombin cleavage, gel filtration)
T2 sequence (looked up): T1 sequence (looked up) with R119G, A145D
The experiment is described as above.

For the next experiment, the target named is T3, β16β17 K46A (human, UniProt P11277 1898-2083, K2049A).
T3 construct: erythrocyte β-spectrin, human, residues 1898-2083 (β16β17); mutant of m2; also called K2049A; source: E. coli C41(DE3), purified (Ni2+ agarose, thrombin cleavage, gel filtration)
T3 sequence (looked up): T1 sequence (looked up) with A145D, K152A
Described as above.

The target of the next experiment is T4, β16β17 K43A (human, UniProt P11277 1898-2083, K2046A).
T4 construct: erythrocyte β-spectrin, human, residues 1898-2083 (β16β17); mutant of m2; also called K2046A; source: E. coli C41(DE3), purified (Ni2+ agarose, thrombin cleavage, gel filtration)
T4 sequence (looked up): T1 sequence (looked up) with A145D, K149A
The description is as above.

The target in experiment [1] is T5, β16β17 (erythrocyte β-spectrin residues 1898–2083), wild type (human, UniProt P11277 1898-2083).
T5 construct: erythrocyte β-spectrin, human, residues 1898-2083 (β16 plus the incomplete 17th domain); synthetic gene (GenScript) in a modified pRSETA plasmid; source: E. coli C41(DE3), purified (Ni2+ agarose, thrombin cleavage, gel filtration)
T5 sequence (looked up): T1 sequence (looked up) with A145D
Described as above.

For experiment [2], the target named is T5, β16β17 (erythrocyte β-spectrin residues …). Briefly: stopped-flow intrinsic tryptophan fluorescence (dissociation/unfolding kinetics); wild type; observed rate constants for tetramer dissociation calculated from folding and unfolding experiments in urea; k− in water with mk− 1.44 M^-1; PBS, 25 °C.

Changes are numbered by the printed parent chain.

B1: α0α1 (erythrocyte α-spectrin residues 2–163), wild type (domain or fragment, human, UniProt P02549 2-163, looked up)
chain: EQFPKETVVESSGPKVLETAEEIQERRQEVLTRYQSFKERVAERGQKLEDSYHLQVFKRDADDLGKWIMEKVNILTDKSYEDPTNIQGKYQKHQSLEAEVQTKSRLMSELEKTREERFTMGHSAHEETKAHIEELRHLWDLLLELTLEKGDQLLRALKFQQY
notes: synthetic gene (GenScript) in a modified pRSETA plasmid; also called α1α0; source: E. coli C41(DE3), purified (Ni2+ agarose, thrombin cleavage, gel filtration)
Consider B1, for which the Ka with β16β17 D39A was 470000 M⁻¹; with β16β17 R13G, 71000 M⁻¹; in the experiment with β16β17 K46A it was 520000 M⁻¹; with β16β17 K43A it was 1.8e+06 M⁻¹. This molecule registered a Kd in experiment [1] of 0.4 µM. For the same molecule, the koff in experiment [2] is 0.00025 s⁻¹.
